Data reported in the supplement of paper PMC10567573.

B1: HSP90AB1 (parent)
chain: QVANSAFVERVRKRGFEVVYMTEP

Variants of: B1
Experiment: protein stability index of a GFP-peptide fusion (GPS, HEK-293T) (PSI 1-6); higher = more stable
Details: c terminus: a fixed tail appended
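Note: lentivirally expressed fusions sorted by FACS into six bins by GFP to DsRed ratio, PSI derived from sequencing read proportions per bin multiplied by bin number.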

Protein stability index: each site, then its substitutions
V18: D 2.88 | C 2.38 | T 2.67 | S 2.57 | A 2.96 | L 2.58 | E 2.99 | F 1.85 | Q 2.59 | W 2.05 | P 2.47 | K 2.12 | N 3.1 | H 2.83
E9: K 2.26 | T 1.76 | N 1.9 | H 2.27 | M 2.69 | A 1.36 | Q 1.72 | P 2.56 | F 2.16 | R 1.93 | W 3.56 | Y 2.32 | G 2.74 | D 2.56 | C 2.07 | S 1.63 | V 1.97 | L 3.24
A6: T 2.69 | R 2.71 | V 1.57 | K 2.32 | F 1.73 | D 2.67 | W 1.55 | G 2.19 | S 2.61 | M 2.54 | N 2.11 | P 2.81 | L 2.09 | C 1.55 | E 2.86 | I 1.68 | H 2.43 | Y 1.55
R12: G 2.59 | F 2.13 | L 2.1 | H 2.53 | N 2.63 | A 2.18 | E 3.16 | T 2.09 | C 1.98 | Q 2.35 | M 2.01 | W 1.6 | K 3.12 | P 2.74 | S 2.87 | D 3.5 | V 2.16
K13: V 1.54 | S 2.83 | R 2.43 | L 2.49 | D 2.67 | N 2.24 | M 1.53 | F 1.58 | G 1.34 | W 2.48 | C 1.61 | P 2.63 | Y 1.75 | T 2.35 | I 1.51 | H 1.95 | A 2.42 | Q 2.2
R10: G 2.17 | C 2.05 | Q 2.17 | V 1.76 | P 2.57 | A 2.18 | Y 1.58 | H 2.33 | N 2.99 | E 2.28 | F 1.29 | D 2.58 | I 1.94 | M 1.54 | L 1.81 | T 2.29
F16: K 3.2 | I 2.61 | T 3.1 | L 2.52 | C 2.71 | E 4.47 | A 3.87 | V 2.64 | W 2.04 | H 3.05 | D 4.16 | Q 4.2 | P 3.05 | G 3.28 | S 3.64 | Y 2.11 | N 3.3 | R 2.98 | M 2.73
E17: P 2.02 | T 1.87 | I 2.75 | H 1.76 | N 2.32 | K 2.02 | F 4.31 | G 2.88 | D 2 | R 2.19 | V 1.89 | A 1.26 | Q 1.51 | S 2.49 | C 2.44 | Y 2.6 | M 2.15
M21: L 2.6 | N 2.77 | T 3.05 | D 2.96 | Q 3.1 | E 3.06 | R 3.33 | W 3.09 | C 2.41 | F 2.06 | P 2.8 | G 2.65 | I 1.98 | Y 2.04 | H 3.37 | A 2.11
A3: V 2.43 | T 2.93 | S 2.74 | M 2.26 | Q 2.46 | P 2.69 | Y 2.35 | W 1.91
N4: L 1.69 | A 2.02 | R 2.18 | S 2.21 | Y 1.72 | H 2.6 | T 1.78 | P 2.03 | I 2.64 | W 1.94 | F 2.16 | E 2.81 | D 3.01 | K 1.96 | Q 2.72
V11: E 3.58 | Q 3.2 | K 1.85 | M 2.11 | S 2.61 | L 1.69 | Y 2.17 | W 1.34 | R 2.43 | F 2.09 | P 2.48 | G 2.56 | A 2.62 | I 1.79 | T 2.83 | H 2.73
E23: G 1.78 | N 1.83 | F 1.62 | L 1.16 | K 2.13 | M 2.56 | A 2.88 | D 2.81 | I 1.69 | C 2.67 | H 1.95 | P 2.19
V19: M 1.84 | L 2.09 | E 3.43 | C 2.79 | A 2.83 | Q 2.33 | P 2.79 | T 2.93 | F 1.53 | W 1.42 | G 2.75 | S 2.68 | R 2.57 | Y 1.98 | K 2.69 | N 3.15 | I 2.15
R14: W 2.16 | K 2.54 | G 2.09 | S 2.26 | E 2.75 | C 1.36 | I 2.56 | F 1.92 | N 2.69 | V 1.65 | L 2.03 | D 3.23 | Q 2.1 | H 1.98 | P 2.51 | M 1.6 | Y 2.21
T22: I 1.81 | M 1.91 | Q 2.54 | A 2.89 | F 1.68 | V 1.63 | C 2.12 | S 2.7 | E 2.56 | G 2 | Y 1.95 | W 1.55 | P 2.38 | L 1.7 | N 2.51 | H 1.91
G15: I 1.81 | M 2.07 | K 2.12 | L 1.83 | T 2.72 | V 2.19 | A 2.01 | S 2.38 | W 1.91 | E 2.56 | H 1.66 | R 1.98 | F 2.21 | C 1.79 | D 3.3 | N 2.61 | Y 1.61 | P 2.75
S5: Y 2.17 | T 2.46 | K 1.71 | H 2.29 | W 1.97 | M 2.2 | D 2.59 | E 2 | P 2.44 | A 2.24 | V 2.22 | F 1.76 | N 2.26 | G 2.02 | R 1.77 | L 2.12
F7: V 2.84 | P 3.28 | M 2.35 | E 3.48 | T 3.42 | D 3.56 | H 3.24 | K 3.03 | S 2.32 | W 1.99 | R 2.75 | Y 2.38
V8: W 1.47 | I 1.88 | M 2.49 | K 2.54 | A 2.33 | N 2.8 | P 2.48 | Q 2.2 | T 2.52 | S 2.54 | F 1.8 | D 3.46 | H 2.47 | Y 2.7 | G 2.91 | C 2.92 | R 2.07 | L 1.96
Y20: N 3.62 | H 3.07 | P 2.81 | L 2.22 | R 3.23 | E 3.37 | C 2.99 | K 2.6 | V 3.05 | A 2.62 | G 3.52 | D 3.06 | T 2.69 | Q 3.41 | W 1.96 | I 1.78
